The assay has as its target SIRPγ on Jurkat cells (human) (UniProt Q9P1W8). As to the kind of experiment: flow cytometry on Jurkat cells (endogenous SIRPγ), PE-conjugated antibody, fold over isotype (MFI). On the technique in general: Flow cytometry measures light scatter and fluorescence of single cells or particles in a stream.

SIRPγ on Jurkat cells (human), sequence (Q9P1W8 29-387): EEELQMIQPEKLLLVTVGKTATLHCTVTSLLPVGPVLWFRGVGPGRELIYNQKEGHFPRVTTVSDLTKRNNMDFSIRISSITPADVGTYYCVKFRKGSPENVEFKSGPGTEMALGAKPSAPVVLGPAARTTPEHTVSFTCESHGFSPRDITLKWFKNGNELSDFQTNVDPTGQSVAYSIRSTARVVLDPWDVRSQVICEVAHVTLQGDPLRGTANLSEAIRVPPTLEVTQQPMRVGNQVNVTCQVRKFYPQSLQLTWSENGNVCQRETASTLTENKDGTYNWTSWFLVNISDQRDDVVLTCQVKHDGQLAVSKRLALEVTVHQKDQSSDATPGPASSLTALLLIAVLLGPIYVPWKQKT

What is called EC50 (read off the curve) is the concentration giving half of the maximal effect. PE SIRPy LSB2.20 (antibody) yielded an EC50 (read off the curve) of 20 nM.

(Values after patent publication US20250026827A1.)
